The source of these data is patent US10357539B2, “Use of peptides that block metadherin-SND1 interaction as treatment for cancer” (THE TRUSTEES OF PRINCETON UNIVERSITY, priority 2014, dated 2019).

Where no end group is shown, it is not given here.

For one experiment, the target named is T1, SND1 (Homo sapiens, UniProt Q7KZF4).
T1 construct: 15 μg of His-SND1 (16-339) was added to the resin; made in house; host or cells: E. coli DH5α
T1 sequence (Q7KZF4 1-339): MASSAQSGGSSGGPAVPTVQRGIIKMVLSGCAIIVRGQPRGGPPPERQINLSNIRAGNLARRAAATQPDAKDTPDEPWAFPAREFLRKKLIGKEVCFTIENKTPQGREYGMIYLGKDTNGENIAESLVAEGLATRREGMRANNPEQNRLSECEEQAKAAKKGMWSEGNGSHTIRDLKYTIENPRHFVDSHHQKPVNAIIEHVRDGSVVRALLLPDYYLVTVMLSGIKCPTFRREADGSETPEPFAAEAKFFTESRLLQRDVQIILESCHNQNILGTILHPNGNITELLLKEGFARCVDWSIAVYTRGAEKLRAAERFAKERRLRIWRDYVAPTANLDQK
Kind of experiment: GST-mediated pull-down of SND1 by GST-tagged MTDH fragments and mutants. Type of experiment: binding. The note with it: His6-SND1ΔC (1-339); Coomassie blue staining. From the text:
FIGS. 7A-E represents determination of key regions and residues mediating the MTDH-SND1 interaction. (FIG. 7A) Schematics of MTDH fragments and mutants with indicated SND1-binding capability. + indicates binding and − indicates no binding based on results shown below. Two putative nuclear localization signals are residues 432-451 for NLS2 and residues 561-580 for NLS3. In the enlarged view of the minimal binding region 386-407, 9 residues were targeted for mutagenesis in the current study. […] (FIG. 7B) Pulldown of His6-SND1AC by GST-tagged MTDH fragments with indicated boundaries. The bound proteins were examined by SDS-PAGE and visualized by Coomassie blue staining. (FIG. 7C) Pulldown of His6-SND1ΔC by GST-tagged WT or triple mutant MTDH fragments (364-582). For (FIG. 7B) and (FIG. 7C), 1/10 of the His6-SND1ΔC input was shown, and GST alone was used as a negative control. Representative results of 3 independent experiments are shown. (FIG. 7D, FIG. 7E) Lysates from HEK293T cells expressing the indicated ectopic human SND1, AGO2 or MTDH were immunoprecipitated with anti-Myc and immunoblotted with the indicated antibodies.
(§1) (FIG. 22A) In vitro pull-down of SND1 (16-339) by GST-tagged MTDH (364-582) harboring WT or mutant sequence. The proteins bound to GS4B were examined on SDS-PAGE and visualized by Coomassie blue staining. (FIG. 22B) In vitro pull-down of WT and mutant SND1 (16-339) by GST-tagged MTDH (364-582). The bound proteins were examined as in (FIG. 22A). For both (FIG. 22A) and (FIG. 22B), experiments were repeated three times; representative results are shown. The normalized percentage of binding was averaged from three experiments; mean±SEM was shown below the data. (FIG. 22C) HEK293T cells were transfected with human HA-SND1, WT Myc-MTDH or Myc-MTDH with indicated single point mutation. Lysates were immunoprecipitated with anti-Myc antibody and immunoblotted with the indicated antibodies. (FIG. 22D) HEK293T cells were transfected with human Myc-MTDH, WT HA-SND1 or mutant HA-SND1 with indicated single point mutations or deletions. Lysates were immunoprecipitated with anti-Myc and immunoblotted with the indicated antibodies.
(§2) GST-Mediated Pull-Down Assay: ˜20 μg of GST-MTDH (different truncation forms and site mutants) was bound to 10 μl of glutathione resin via GST tag. The resin was washed with 200 μl assay buffer (25 mM Tris, PH8.0, 150 mM NaCl, 3 mM DTT) three times to remove the excess unbound protein. 15 μg of His-SND1 (16-339) was added to the resin in a 100 μl volume suspended in the assay buffer with 2 mg/ml of BSA. The mixture was washed with 200 μl assay buffer twice before examined by SDS-PAGE, and visualized by Coomassie blue staining. The experiments were repeated 3 times and the ratio of SND1 associated with GST-MTDH was analyzed by ImageJ.

In the next experiment the target is T2, MTDH (364-582) (Homo sapiens, UniProt Q86UE4).
T2 construct: made in house; host or cells: E. coli DH5α
T2 sequence (Q86UE4 364-582): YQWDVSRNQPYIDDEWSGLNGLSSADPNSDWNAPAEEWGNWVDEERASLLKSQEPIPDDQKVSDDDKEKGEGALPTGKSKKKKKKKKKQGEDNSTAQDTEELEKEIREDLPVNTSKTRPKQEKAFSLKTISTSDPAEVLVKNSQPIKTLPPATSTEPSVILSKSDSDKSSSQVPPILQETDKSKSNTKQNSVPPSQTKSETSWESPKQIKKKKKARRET
Kind of experiment: GST-mediated pull-down of SND1 constructs and mutants by GST-tagged MTDH (364-582). The note with it: SND1 mutants in SND1 (16-339). Type of experiment: binding.
From the text: as §1, §2

The target in another experiment is T3, Myc-MTDH (Homo sapiens, UniProt Q86UE4, A78S/T317A).
T3 construct: Full-length HA-tagged SND1 was co-expressed with full-length Myc-tagged wild-type (WT) or mutant MTDH in HEK293T cells; expressed in transfected cells; host or cells: HEK293T
T3 sequence (Q86UE4 1-582 A78S/T317A): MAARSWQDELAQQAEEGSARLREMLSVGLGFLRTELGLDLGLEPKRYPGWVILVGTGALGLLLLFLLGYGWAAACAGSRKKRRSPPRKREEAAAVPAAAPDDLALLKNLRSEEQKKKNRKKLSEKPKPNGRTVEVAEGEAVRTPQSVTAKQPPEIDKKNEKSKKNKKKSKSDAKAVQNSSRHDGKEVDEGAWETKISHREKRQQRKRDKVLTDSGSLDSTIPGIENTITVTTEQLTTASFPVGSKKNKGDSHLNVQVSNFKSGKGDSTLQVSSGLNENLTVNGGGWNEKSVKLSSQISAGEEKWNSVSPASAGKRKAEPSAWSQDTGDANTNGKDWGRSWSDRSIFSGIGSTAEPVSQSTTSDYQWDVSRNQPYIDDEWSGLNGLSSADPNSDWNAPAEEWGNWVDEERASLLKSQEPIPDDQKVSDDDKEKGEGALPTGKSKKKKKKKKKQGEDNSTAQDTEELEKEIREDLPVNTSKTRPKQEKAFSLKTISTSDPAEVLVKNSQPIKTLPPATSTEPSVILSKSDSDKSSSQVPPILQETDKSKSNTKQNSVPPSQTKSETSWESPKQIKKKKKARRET
Kind of experiment: Co-immunoprecipitation of HA-SND1 (WT or mutant) with Myc-MTDH in HEK293T cells. Type of experiment: cell-based. The note with it: HEK293T cell lysates.
From the text: as §1
Immunoprecipitation and western blot: For in vivo immunoprecipitation (IP) experiments, cultured cells were washed in cold PBS and lysed in lysis buffer (20 mM Tris pH 7.4, 0.15 M NaCl, 1 mM EDTA, 1 mM EGTA, 1% Tx-100, 0.0025 M Na2P2O7, 1 mM β-glycerolphosphate, 1 mM Na3VO4, and 1 mM NaF) with an EDTA-free protease inhibitor mixture (Roche Applied Science) and PMSF. Cell lysates were then incubated on ice for 10 min, centrifuged, and precleared by incubating with protein A/G beads (Santa Cruz Biotechnology) for 1 h at 4° C. For IP bead preparation, 30 μl of protein A/G beads were incubated with 5 μg of antibodies for 2 h at 4° C. IPs were carried out for overnight at 4° C., and beads were centrifuged, washed and subsequently boiled for 5 min in SDS protein loading buffer to elute bound protein. IP lysates were subjected to western blotting with indicated antibodies.

Take “22 amino-acid fragment (residues 386-407): GST-tagged minimal SND1-binding fragment of MTDH, residues 386-407 (SSADPNSDWNAPAEEWGNWVDE; also: GST-tagged fragment (tag left off))”: the “SND1-binding of MTDH fragments and triple mutants, in vitro” value (from here on “SND1-binding”) in the experiment with SND1 was “sufficient for SND1-binding”.

B1: R316E: SND1 mutation located outside the interface, negative control (protein)
chain: VPTVQRGIIKMVLSGCAIIVRGQPRGGPPPERQINLSNIRAGNLARRAAATQPDAKDTPDEPWAFPAREFLRKKLIGKEVCFTIENKTPQGREYGMIYLGKDTNGENIAESLVAEGLATRREGMRANNPEQNRLSECEEQAKAAKKGMWSEGNGSHTIRDLKYTIENPRHFVDSHHQKPVNAIIEHVRDGSVVRALLLPDYYLVTVMLSGIKCPTFRREADGSETPEPFAAEAKFFTESRLLQRDVQIILESCHNQNILGTILHPNGNITELLLKEGFARCVDWSIAVYTRGAEKLRAAEEFAKERRLRIWRDYVAPTANLDQK
modifications: left off: small tags and cut ends
notes: SND1 mutation located outside the interface, negative control
For B1, the “MTDH-binding of SND1 domains and mutants, in vitro” value with MTDH (364-582) is reported as “barely affected MTDH-binding”. The “interaction of full-length HA-SND1 (WT or mutant) with Myc-MTDH” value with Myc-MTDH is recorded as “bound readily with Myc-MTDH”.

B2: MTDH fragment 364-582: GST-tagged MTDH fragment, amino acids 364-582 of SEQ ID NO: 1 (protein, listed as Homo sapiens)
chain: YQWDVSRNQPYIDDEWSGLNGLSSADPNSDWNAPAEEWGNWVDEERASLLKSQEPIPDDQKVSDDDKEKGEGALPTGKSKKKKKKKKKQGEDNSTAQDTEELEKEIREDLPVNTSKTRPKQEKAFSLKTISTSDPAEVLVKNSQPIKTLPPATSTEPSVILSKSDSDKSSSQVPPILQETDKSKSNTKQNSVPPSQTKSETSWESPKQIKKKKKARRET
modifications: GST tag
As for B2, in the experiment with SND1, the “SND1-binding” value is “bound stoichiometrically”.

B3: TPM3: MTDH triple-point mutant W404D, D406R and E407R (protein)
chain: YQWDVSRNQPYIDDEWSGLNGLSSADPNSDWNAPAEEWGNDVRRERASLLKSQEPIPDDQKVSDDDKEKGEGALPTGKSKKKKKKKKKQGEDNSTAQDTEELEKEIREDLPVNTSKTRPKQEKAFSLKTISTSDPAEVLVKNSQPIKTLPPATSTEPSVILSKSDSDKSSSQVPPILQETDKSKSNTKQNSVPPSQTKSETSWESPKQIKKKKKARRET
modifications: left off: a dimerising Fc or GST
notes: MTDH triple-point mutant W404D, D406R and E407R
As to B3, in the experiment with SND1, the “SND1-binding” value is on record as “bound SND1ΔC as effectively as the WT MTDH”.
